# ChEMBL document CHEMBL1671717, “In vitro potentiation of carbapenems with ME1071, a novel metallo-beta-lactamase inhibitor, against metallo-beta-lactamase- producing Pseudomonas aeruginosa clinical isolates” (Antimicrob Agents Chemother, 2010)
# Activity calls are given as the source filed them. The calls are words filed in the database; no cut-off is given here.
# Assays:
# Pseudomonas aeruginosa [1] = assay: Inhibition of Pseudomonas aeruginosa Metallo-beta-lactamase assessed as potentiation of aztreonam antimicrobial activity
# Pseudomonas aeruginosa [2] = assay: Inhibition of Pseudomonas aeruginosa Metallo-beta-lactamase assessed as increase in biapenem susceptible rate at 32 ug/ml; set-up: scale not given: the % may be the effect or the level left
# Pseudomonas aeruginosa [3] = assay: Inhibition of Pseudomonas aeruginosa Metallo-beta-lactamase assessed as decrease in biapenem resistance rate at 32 ug/ml
# Pseudomonas aeruginosa [4] = assay: Inhibition of Pseudomonas aeruginosa Metallo-beta-lactamase assessed as potentiation of piperacillin antimicrobial activity
# [5] = system: C[C@@H](O)[C@H]1C(=O)N2C(C(=O)O)=C(SCCNC=N)C[C@H]12; assay: (§1) Activity of Pseudomonas aeruginosa beta-lactamase VIM-2 by UV spectrophotometric analysis
# [6] = system: C[C@@H](O)[C@H]1C(=O)N2C(C(=O)[O-])=C(SC3Cn4cnc[n+]4C3)[C@H](C)[C@H]12; assay: as §1
# [7] = system: C[C@@H](O)[C@H]1C(=O)N2C(C(=O)O)=C(SCCNC=N)C[C@H]12; assay: (§2) Ratio of Kcat to Km for Pseudomonas aeruginosa beta-lactamaseVIM-2 by UV spectrophotometric analysis
# [8] = system: C[C@@H](O)[C@H]1C(=O)N2C(C(=O)[O-])=C(SC3Cn4cnc[n+]4C3)[C@H](C)[C@H]12; assay: as §2
Compound,Activity (Pseudomonas aeruginosa [1]),Activity (Pseudomonas aeruginosa [2]) [%],inhibition (Pseudomonas aeruginosa [3]) [%],Activity (Pseudomonas aeruginosa [4]),Km [5] [µM],kcat [5] [s⁻¹],Km [6] [µM],kcat [6] [s⁻¹],kcat/Km [7] [M⁻¹ s⁻¹],kcat/Km [8] [M⁻¹ s⁻¹]
CC/C(C(=O)O)=C(\CC)C(=O)O,inactive,22,40,inactive,,,,,,
Beta-lactamase VIM-2 (Pseudomonas aeruginosa) (from UniProt Q9K2N0),,,,,8.5,98.9,24.7,12.4,1.2e+07,500000
